Measured values reported in patent publication US20250092135A1 (NANJING LEADS BIOLABS, published 2025).

Assays:
[1] = target: T1, human MUC16 protein (ECT_TM huMuc16) on 293T cells (human); experiment: cell binding on 293T/hMUC16 cells, read as MFI (the legend calls it ELISA); EC50 table under the plot, unit from the axis Conc.(nM)
T1 chain: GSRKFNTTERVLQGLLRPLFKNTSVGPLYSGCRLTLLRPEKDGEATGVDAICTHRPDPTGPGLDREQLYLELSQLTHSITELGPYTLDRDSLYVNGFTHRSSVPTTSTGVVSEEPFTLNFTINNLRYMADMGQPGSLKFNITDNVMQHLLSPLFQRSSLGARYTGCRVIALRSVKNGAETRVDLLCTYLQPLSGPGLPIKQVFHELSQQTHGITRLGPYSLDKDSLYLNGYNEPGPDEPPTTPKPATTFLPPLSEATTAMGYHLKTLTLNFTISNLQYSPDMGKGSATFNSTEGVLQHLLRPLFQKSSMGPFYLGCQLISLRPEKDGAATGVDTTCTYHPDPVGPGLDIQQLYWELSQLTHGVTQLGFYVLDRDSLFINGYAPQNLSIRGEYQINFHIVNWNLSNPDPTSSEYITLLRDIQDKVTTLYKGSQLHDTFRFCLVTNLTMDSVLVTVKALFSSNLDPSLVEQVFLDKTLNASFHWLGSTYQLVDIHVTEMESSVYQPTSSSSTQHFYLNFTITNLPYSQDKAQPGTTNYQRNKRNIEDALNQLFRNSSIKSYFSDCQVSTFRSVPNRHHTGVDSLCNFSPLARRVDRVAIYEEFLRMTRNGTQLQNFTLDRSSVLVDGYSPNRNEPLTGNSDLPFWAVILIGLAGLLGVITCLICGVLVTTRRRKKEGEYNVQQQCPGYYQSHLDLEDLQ

[2] = target: T2, human MUC16 protein endogenously expressed on cells (human, UniProt Q8WXI7 1-14507); experiment: flow cytometry, OVCAR3 cells (endogenous human MUC16), PE anti-human IgG Fc secondary, MFI; EC50 table under the plot, unit from the axis Conc.(nM)
T2 construct: whole, on cells; also called MUC16 on OVCAR3 cells; MUC16 in ovarian carcinoma tissue
Procedure: (1) Whether the anti-CD3/anti-MUC16 bispecific antibodies in the present invention could bind to the MUC16 protein endogenously expressed on human ovarian carcinoma cells (OVCAR3) (Cell Bank of Type Culture Collection Committee of the Chinese Academy of Sciences, Cat #TCHu228) was determined by cell binding experiments.
The experiments were performed using flow cytometry. OVCAR3 cells were digested, centrifuged and collected. The cells were resuspended in a PBS solution, and seeded into a 96-well plate (Corning, Cat #3799) at 1×10⁵ cells/well. The 96-well plate was centrifuged and then the supernatant was discarded. 100 μL of the serially diluted test bispecific antibody (at a maximum concentration of 200 nM, 5-fold dilution from 100 nM, 9 concentration points in total) was added to the OVCAR3 cells. The plate was incubated at 4° C. for 30 min and centrifuged (1000 rpm, 5 min), and then the supernatant was discarded. 100 μL of PBS solution was added to each well, and the cells were washed twice. 100 μL of fluorescent secondary antibody R-PE-conjugated AffiniPure Goat Anti-Human IgG, Fcγ Fragment Specific (Jackson ImmunoResearch, Cat #109-116-098) diluted in a ratio of 1:200 was then added. The cells were incubated at 4° C. for 30 min. After the cells were washed twice with the PBS solution, 100 μL of PBS solution was added to each well to resuspend the cells, and finally, fluorescence signals were detected using a BD Accuri C5 (BD Bioscience) flow cytometer according to the manufacturer's instructions. REGN4018 was used as a positive control.

[3] = target: T3, rhesus monkey MUC16 protein (ECT_TM RhMuc16) on 293T cells (rhesus monkey); experiment: flow cytometry, 293T/rhesus MUC16 cells as printed on the sheet and in the legend (the example, paragraph 611, speaks of cynomolgus MUC16), PE anti-human IgG Fc secondary, MFI; EC50 table under the plot, unit from the axis Conc.(nM); curve still rising at the top concentration of 100 nM
T3 chain: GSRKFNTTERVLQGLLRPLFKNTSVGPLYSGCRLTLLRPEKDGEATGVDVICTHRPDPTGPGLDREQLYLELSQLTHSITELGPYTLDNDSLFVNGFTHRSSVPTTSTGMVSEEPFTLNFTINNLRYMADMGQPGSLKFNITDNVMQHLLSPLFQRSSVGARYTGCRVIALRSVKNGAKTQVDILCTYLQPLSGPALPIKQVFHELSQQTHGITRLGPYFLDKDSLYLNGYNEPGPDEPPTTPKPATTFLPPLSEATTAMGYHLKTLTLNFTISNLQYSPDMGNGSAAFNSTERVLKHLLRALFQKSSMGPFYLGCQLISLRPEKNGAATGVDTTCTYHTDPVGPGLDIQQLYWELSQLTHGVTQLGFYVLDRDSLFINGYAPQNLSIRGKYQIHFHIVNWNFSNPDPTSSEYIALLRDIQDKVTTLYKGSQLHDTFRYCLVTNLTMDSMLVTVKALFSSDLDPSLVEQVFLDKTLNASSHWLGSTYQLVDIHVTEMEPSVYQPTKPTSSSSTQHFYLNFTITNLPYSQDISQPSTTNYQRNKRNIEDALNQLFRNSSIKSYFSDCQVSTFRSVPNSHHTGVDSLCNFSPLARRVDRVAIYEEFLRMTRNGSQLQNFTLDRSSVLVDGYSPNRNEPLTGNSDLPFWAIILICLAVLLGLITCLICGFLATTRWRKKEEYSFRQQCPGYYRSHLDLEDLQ
Procedure: Referring to the flow cytometry described above, the serially diluted test bispecific antibody (at an initial concentration of 100 nM, 5-fold dilution, 9 points) was added to the cells, and the plate was incubated at 4° C. for 30 min. The cells were washed twice with PBS, and then fluorescent secondary antibody R-PE-conjugated AffiniPure Goat Anti-Human IgG, Fcγ Fragment Specific was added. The cells were incubated at 4° C. for 30 min. The cells were washed twice with PBS and then resuspended, and finally, fluorescence signals were detected using a BD Accuri C5 (BD Bioscience) flow cytometer.

B1: anti-MUC16 antibody 776.1(C33S) (antibody, human IgG1, kappa, L234A L235A, V domains shown)
VH: EVQLQQSGPELVKPGASVKISCKASGYTFTDYNIHWVKQSHGKILEWIGYIYPYNGVSDYNQNFKSKATLIVDNSSNTAYMELRSLTSEDSAVYYCARWDFGSGYYFDYWGQGTTLTVSS
VL: QIVLSQSPAILFASPGETVTMTCRASSSVIYMSWNQQKPGSSPKPWIYGTSTLASGVPTRFSGSGSGTSYSLTISRVEAEDAATYYCQQWSSNPFTFGSGTKLEIKR
**Q.** For B1, which EC50 [1] is on record?
**A.** 6.67 nM

B2: humanized anti-MUC16 antibody Hu-L4H7 (antibody, human IgG1, kappa, L234A L235A, V domains shown)
VH: QVQLVQSGAEVKKPGASVKVSCKASGYTFTDYNIHWVRQAPGQGLEWMGYIYPYNGVSDYNQNFKSRVTMTTDTSTSTAYMELRSLRSDDTAVYYCARWDFGSGYYFDYWGQGTLVTVSS
VL: EIVLTQSPATLSLSPGERATLSCRASSSVIYMSWYQQKPGQAPRLLIYGTSTLASGIPARFSGSGSGTDFTLTISSLEPEDFAVYYCQQWSSNPFTFGQGTKLEIKR
notes: human IgG1 with L234A, L235A, D265A, P329A and kappa; Biotinylated in the CA125 ELISA; also called humanized MUC-16 antibody
**Q.** Which EC50 [1] does the source give for B2 here?
**A.** 2.28 nM

**Q.** And the EC50 [2]?
**A.** 2.73 nM

**Q.** What about the EC50 [3] of the same binder?
**A.** 59.4 nM

B3: anti-CD3/MUC16 bispecific antibody MCH7-23L2-MCH7 (bispecific antibody, human IgG1, kappa, L234A L235A)
heavy 1: QVQLVQSGAEVKKPGASVKVSCKASGYTFTDYNIHWVRQAPGQGLEWMGYIYPYNGVSDYNQNFKSRVTMTTDTSTSTAYMELRSLRSDDTAVYYCARWDFGSGYYFDYWGQGTLVTVSSASTKGPSVFPLAPSSKSTSGGTAALGCLVKDYFPEPVTVSWNSGALTSGVHTFPAVLQSSGLYSLSSVVTVPSSSLGTQTYICNVNHKPSNTKVDKKVEPKSCEVQLVESGGGLVQPGGSLKLSCAASGFTFSTYAMNWVRQAPGKGLEWVGRIRSKYNNYATYYADSVKDRFTISRDDSKNTLYLQMNSLKTEDTAVYYCTRHGNFGNSYVSWFAYWGQGTTVTVSSGGGGSGGGGSGGGGSQAVVTQEPSLTVSPGGTVTLTCRSSTGAVTTSNYANWVQQKPGQAPRGLIGGTNKRAPGVPARFSGSLLGGKAALTLSGAQPEDEAEYFCALWYSNLWVFGGGTKLTVLGEPKSSDKTHTCPPCPAPEAAGGPSVFLFPPKPKDTLMISRTPEVTCVVVAVSHEDPEVKFNWYVDGVEVHNAKTKPREEQYNSTYRVVSVLTVLHQDWLNGKEYKCKVSNKALAAPIEKTISKAKGQPREPQVCTLPPSRDELTKNQVSLSCAVKGFYPSDIAVEWESNGQPENNYKTTPPVLDSDGSFFLVSKLTVDKSRWQQGNVFSCSVMHEALHNHYTQKSLSLSPGK
heavy 2: not shown
light: EIVLTQSPATLSLSPGERATLSCRASSSVIYMSWYQQKPGQAPRLLIYGTSTLASGIPARFSGSGSGTDFTLTISSLEPEDFAVYYCQQWSSNPFTFGQGTKLEIKRTVAAPSVFIFPPSDEQLKSGTASVVCLLNNFYPREAKVQWKVDNALQSGNSQESVTEQDSKDSTYSLSSTLTLSKADYEKHKVYACEVTHQGLSSPVTKSFNRGEC
notes: MCH7-23L2ScFv-Hole (VH-CH1-scFv-Fc) + MCH7-KIH-Knob + two light chains MCL4 LC
**Q.** B3 was tested. Which EC50 [2] did it give?
**A.** 4.21 nM

**Q.** What about the EC50 [3] of the same binder?
**A.** 52.2 nM
